Residue numbers refer to the chain shown, from its start.
Legend:
Test in all cases: holdup assay
Design in all cases: key: below the threshold = too weak to quantify, mostly under pKd 3.1 to 4
Conditions in all cases: plain residues with an end cap or a label only (N-terminal biotin on a linker: ado-ado)
[1] = target: T1, APBA2_1, Q99767
T1 sequence (Q99767 563-664, limits assumed, looked up): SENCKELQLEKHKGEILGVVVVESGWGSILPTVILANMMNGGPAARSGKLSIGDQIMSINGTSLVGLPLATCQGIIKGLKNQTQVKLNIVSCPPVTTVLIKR

[2] = target: ARHGEF12, Q9NZN5-2
[3] = target: CASK, O14936
[4] = target: T2, DLG3_1, Q92796
T2 sequence (Q92796 125-227, limits assumed, looked up): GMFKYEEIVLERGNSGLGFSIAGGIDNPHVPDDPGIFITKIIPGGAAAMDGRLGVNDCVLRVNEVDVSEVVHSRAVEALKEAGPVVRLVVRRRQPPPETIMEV

[5] = target: T3, DLG3_2, Q92796
T3 sequence (Q92796 221-321, limits assumed, looked up): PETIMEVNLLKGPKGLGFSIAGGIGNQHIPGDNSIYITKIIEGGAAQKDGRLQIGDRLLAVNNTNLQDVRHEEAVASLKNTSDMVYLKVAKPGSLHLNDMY

[6] = target: DLG5_1, Q8TDM6
[7] = target: FRMPD4, Q14CM0
[8] = target: GORASP2, Q9H8Y8
[9] = target: GRID2IP_2, A4D2P6
[10] = target: Inadl_1, Q8NI35
[11] = target: T4, LIN7A, O14910
T4 sequence (O14910 103-200, limits assumed, looked up): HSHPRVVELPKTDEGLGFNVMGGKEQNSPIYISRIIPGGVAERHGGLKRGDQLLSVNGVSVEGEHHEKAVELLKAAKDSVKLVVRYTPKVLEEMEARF

[12] = target: T5, LIN7B, Q9HAP6
T5 sequence (Q9HAP6 88-185, limits assumed, looked up): T4 sequence (O14910 103-200, limits assumed, looked up) with S2A, V20I, I35V, E42D, H65Q, K77Q, D78G, K89R

[13] = target: MAGI1_1, Q96QZ7
[14] = target: MAST2, Q6P0Q8
[15] = target: NHERF4_2, Q86UT5
[16] = target: T6, PDZRN3_1, Q9UPQ7
T6 sequence (Q9UPQ7 244-349, limits assumed, looked up): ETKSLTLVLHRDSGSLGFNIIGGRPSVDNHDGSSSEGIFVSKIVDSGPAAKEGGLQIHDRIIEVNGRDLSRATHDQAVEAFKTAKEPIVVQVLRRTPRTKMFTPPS

[17] = target: PICK1, Q9NRD5
[18] = target: T7, RADIL, Q96JH8
T7 sequence (Q96JH8 971-1071, limits assumed, looked up): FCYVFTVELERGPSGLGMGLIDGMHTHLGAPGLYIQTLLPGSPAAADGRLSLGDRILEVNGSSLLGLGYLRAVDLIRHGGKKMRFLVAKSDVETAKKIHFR

[19] = target: T8, SNTA1, Q13424
T8 sequence (Q13424 82-180, limits assumed, looked up): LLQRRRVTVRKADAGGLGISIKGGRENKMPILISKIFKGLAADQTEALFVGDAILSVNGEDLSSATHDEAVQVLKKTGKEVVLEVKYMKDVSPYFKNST

[20] = target: T9, SNTG1, Q9NSN8
T9 sequence (Q9NSN8 52-150, limits assumed, looked up): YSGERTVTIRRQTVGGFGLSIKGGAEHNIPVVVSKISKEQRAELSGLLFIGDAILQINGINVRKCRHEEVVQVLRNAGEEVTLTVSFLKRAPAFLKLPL

[21] = target: T10, SNTG2, Q9NY99
T10 sequence (Q9NY99 68-166, limits assumed, looked up): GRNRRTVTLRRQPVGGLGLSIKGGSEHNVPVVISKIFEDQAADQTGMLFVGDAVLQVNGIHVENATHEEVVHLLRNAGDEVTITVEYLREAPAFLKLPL

[22] = target: T11, TIAM2, Q8IVF5
T11 sequence (Q8IVF5 885-986, limits assumed, looked up): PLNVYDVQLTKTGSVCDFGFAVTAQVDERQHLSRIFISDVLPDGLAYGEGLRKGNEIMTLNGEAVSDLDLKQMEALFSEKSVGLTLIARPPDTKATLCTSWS

[23] = target: TJP1_2, Q07157
[24] = target: T12, TX1BP3, O14907
T12 sequence (O14907 10-122, limits assumed, looked up): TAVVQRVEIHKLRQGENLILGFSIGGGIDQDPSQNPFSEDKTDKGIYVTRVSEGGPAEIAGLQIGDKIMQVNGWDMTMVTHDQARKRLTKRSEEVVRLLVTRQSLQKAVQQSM

Sequence of GRID2IP_2, A4D2P6 (A4D2P6 272-370): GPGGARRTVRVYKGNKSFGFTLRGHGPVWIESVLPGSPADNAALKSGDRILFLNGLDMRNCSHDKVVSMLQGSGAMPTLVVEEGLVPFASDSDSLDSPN
Sequence of MAST2, Q6P0Q8 (Q6P0Q8 1099-1202): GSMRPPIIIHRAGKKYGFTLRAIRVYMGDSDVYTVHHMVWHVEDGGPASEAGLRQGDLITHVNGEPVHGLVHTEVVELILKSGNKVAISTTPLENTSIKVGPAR
Sequence of NHERF4_2, Q86UT5 (Q86UT5 220-308): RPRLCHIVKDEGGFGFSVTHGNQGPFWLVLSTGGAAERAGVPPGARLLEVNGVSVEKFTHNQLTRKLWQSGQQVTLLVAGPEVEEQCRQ
Sequence of ARHGEF12, Q9NZN5-2 (Q9NZN5 other isoform, or with tags, fused parts or gaps): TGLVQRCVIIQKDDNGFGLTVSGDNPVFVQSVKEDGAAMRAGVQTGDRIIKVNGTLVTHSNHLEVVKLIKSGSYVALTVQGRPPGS
Sequence of FRMPD4, Q14CM0 (Q14CM0 67-160): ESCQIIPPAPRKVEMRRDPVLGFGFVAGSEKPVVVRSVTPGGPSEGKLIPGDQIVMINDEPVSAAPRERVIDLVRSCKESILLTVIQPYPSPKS
Sequence of DLG5_1, Q8TDM6 (Q8TDM6 617-713): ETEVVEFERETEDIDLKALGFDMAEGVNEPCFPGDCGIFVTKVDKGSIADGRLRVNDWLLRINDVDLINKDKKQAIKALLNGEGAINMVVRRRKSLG
Sequence of TJP1_2, Q07157 (Q07157 181-274): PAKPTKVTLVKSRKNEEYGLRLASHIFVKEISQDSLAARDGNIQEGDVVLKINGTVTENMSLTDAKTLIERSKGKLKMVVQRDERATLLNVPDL
Sequence of CASK, O14936 (O14936 487-570): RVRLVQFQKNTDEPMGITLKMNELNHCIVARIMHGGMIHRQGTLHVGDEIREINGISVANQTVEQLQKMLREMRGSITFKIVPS
Sequence of Inadl_1, Q8NI35 (Q8NI35 113-229): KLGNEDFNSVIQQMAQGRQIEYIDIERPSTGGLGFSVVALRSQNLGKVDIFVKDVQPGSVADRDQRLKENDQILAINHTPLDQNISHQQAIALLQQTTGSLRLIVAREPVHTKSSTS
Sequence of PICK1, Q9NRD5 (Q9NRD5 17-115): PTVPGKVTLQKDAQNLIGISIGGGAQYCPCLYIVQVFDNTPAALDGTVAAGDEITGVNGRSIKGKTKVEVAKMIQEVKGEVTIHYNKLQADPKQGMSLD
Sequence of MAGI1_1, Q96QZ7 (Q96QZ7 1-106): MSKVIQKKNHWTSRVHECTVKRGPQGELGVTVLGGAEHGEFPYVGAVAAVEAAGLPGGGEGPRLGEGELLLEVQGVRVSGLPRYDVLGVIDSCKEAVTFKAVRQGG

| Binder | pKd [1] | pKd [2] | pKd [3] | pKd [4] | pKd [5] | pKd [6] | pKd [7] | pKd [8] | pKd [9] | pKd [10] | pKd [11] | pKd [12] | pKd [13] | pKd [14] | pKd [15] | pKd [16] | pKd [17] | pKd [18] | pKd [19] | pKd [20] | further results |
| --- | --- | --- | --- | --- | --- | --- | --- | --- | --- | --- | --- | --- | --- | --- | --- | --- | --- | --- | --- | --- | --- |
| SFISKKEWYV [NECTIN1, Q15223] | below the threshold | below the threshold | below the threshold | below the threshold | 4.11 | below the threshold | 3.87 | 4.67 | below the threshold | 3.91 | below the threshold | 3.63 | below the threshold | 4.44 | below the threshold | below the threshold | 4.24 | 4.94 | below the threshold | 3.51 | pKd [21]: 3.49; pKd [22]: 5.09; pKd [23]: below the threshold; pKd [24]: below the threshold |
| LKDDELKTKL [SLCO1A2, P46721] | below the threshold | 4.62 | below the threshold | below the threshold | below the threshold | below the threshold | 4.17 | below the threshold | 4.55 | below the threshold | below the threshold | below the threshold | below the threshold | 5.28 | below the threshold | below the threshold | below the threshold | below the threshold | below the threshold | below the threshold | pKd [21]: below the threshold; pKd [22]: below the threshold; pKd [23]: below the threshold; pKd [24]: below the threshold |
| NTANRRTTPV [CACNG2, Q9Y698] | below the threshold | 3.93 | below the threshold | 3.61 | 4.44 | below the threshold | below the threshold | below the threshold | 3.89 | below the threshold | below the threshold | below the threshold | below the threshold | 4.52 | below the threshold | 4.23 | below the threshold | below the threshold | 4.1 | below the threshold | pKd [21]: below the threshold; pKd [22]: below the threshold; pKd [23]: below the threshold; pKd [24]: 4.76 |

Reference: publication PMC9482650, “Quantitative fragmentomics allow affinity mapping of interactomes” (Nature Communications, 2022)
